Test results from patent US20220306762A1 (CRYSTAL BIOSCIENCE, published 2022).

T1: His-tagged mouse CD38 (ACRO Biosystems #CD8-M5223) (mouse, UniProt P56528 45-304)
T1 construct: bought recombinant protein with His tag; also called Murine
T1 sequence (looked up): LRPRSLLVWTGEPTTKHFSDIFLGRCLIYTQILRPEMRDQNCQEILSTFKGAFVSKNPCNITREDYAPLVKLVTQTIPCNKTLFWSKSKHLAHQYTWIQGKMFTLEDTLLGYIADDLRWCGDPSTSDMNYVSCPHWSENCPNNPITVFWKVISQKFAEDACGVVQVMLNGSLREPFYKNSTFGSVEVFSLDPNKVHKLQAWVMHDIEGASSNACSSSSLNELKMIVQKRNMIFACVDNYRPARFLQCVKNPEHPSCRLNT

T2: murine CD38 on transiently transfected Expi293 cells (Origene MC208001) (murine, UniProt P56528 1-304)
T2 construct: whole, on cells; also called Murine (FACs)
T2 sequence (looked up): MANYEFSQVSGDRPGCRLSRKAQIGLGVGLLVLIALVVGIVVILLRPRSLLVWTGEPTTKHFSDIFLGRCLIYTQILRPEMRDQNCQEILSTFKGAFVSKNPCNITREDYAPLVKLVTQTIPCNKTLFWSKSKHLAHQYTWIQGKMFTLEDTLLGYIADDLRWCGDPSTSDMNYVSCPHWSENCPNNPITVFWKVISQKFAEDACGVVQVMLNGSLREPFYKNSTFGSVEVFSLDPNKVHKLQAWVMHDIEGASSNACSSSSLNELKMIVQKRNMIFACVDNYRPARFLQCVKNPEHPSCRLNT

B1: 40769p1.1.G12 (scFv, V domains shown)
VH: EVQLLESGGGLVQPGGSLRLSCAASGFTFDDYVMSWVRQAPGKGLEWVSEISESDGSNKYYADSVKGRFIISRDNSKNTLYLQMNSLRAEDTAVYYCARLEPEKYYGMDVWGQGTTVTVSS
VL: QSVLTQPPSASGTPGQRVTISCSGSNSNIGNNLVSWYQQLPGTAPKLLIYRHDHRPSGVPDRFSGSKSGTSASLAISGLQSEDEADYYCATWDDSLNGRAFGGGTKLTVL
notes: tested as scFv-Fc supernatant
B2: 40596p1.H7 (scFv, V domains shown)
VH: EVQLLESGGGLVQPGGSLRLSCAASGFDFSTYAMTWVRQAPGKGLEWVAGNGWSGSFTYYADSVKGRFTVSRDNSKNTLYLQMNSLRAEDTAVYYCTRNPGFGEMDVWGQGTTVTVSS
VL: EIVLTQSPGTLRLSPGERATLSCRASQTVGTTLAWYQQKPGQAPRLLIHGASTRATDIPDRFSGSGSGTEFTLTISSLQSEDFADYYCQQYKSWPPLTFGGGTKVEIK
notes: tested as scFv-Fc supernatant
B3: 40566p1.A7 (scFv, V domains shown)
VH: RELVESGGGVVRPGESLRLSCAASGFTFDNYDMTWVRQAPGEGLEWVSFISSRGTFTYYTDSVRGRFTISRDNSKNTLYLEMNSLRAEDTAIYYCAKDSGEYYFFDYWGLGTLVTVSS
VL: EIVMTQSPATLSVSPGERATFSCRASQSVNSKLAWYQQKPGQAPRLLIYGASRRATGIPDRFSGSGSGTEFTLTISSLQSEDFAVYYCQQYYDWPPLTFGGGTKVEIK
notes: tested as scFv-Fc supernatant
B4: 40566p1.C1 (scFv, V domains shown)
VH: DVQLVESGGGVVRPGESLRLSCAASGFTFDNYDMTWVRQAPGEGLEWVSFISSRGTFTYYTDSVKGRFTISRDNSKNTLYLQMNSLRAEDTAIYYCTKDSGEYYFFDYWGLGTLVTVSS
VL: ETVMTQSPATLSVSPGERATFSCRASQSVNSKLAWYQQKPGQAPRLLIYGASRRATGIPDRFSGSGSGTEFTLTISSLQSEDFAVYYCQQYYDWPPLTFGGGTKVEIK
notes: tested as scFv-Fc supernatant
B5: 40566p1.A8 (scFv, V domains shown)
VH: DVQLVESGGGVVRPGESLRLSCAASGFTFDNYDMTWVRQAPGEGLEWVSFISSRGTFTYYTDSVKGRFTISRDNSKNTLYLQMNSLRAEDTAIYYCAKDSGEYYFFDYWGLGTLVTVSS
VL: EIVMTQSPATLSVSPGERATFSCRASQSVNSKLAWYQQKPGQAPRLLIYGASRRATGIPDRFSGSGSGTEFTLTISSLQSEDFAVYYCQQYYDWPPLTFGGGTKVEIK
notes: tested as scFv-Fc supernatant
B6: 40566p1.A12 (scFv, V domains shown)
VH: DVQLVESGGGVVRPGESLRLSCAASGFTFDNYDMTWVRQAPGEGLEWVSFISSRGTFTYYTDSVKGRFTISRDNSKNTLYLQMNSLRAEDTAIYYCTKDSGEYYFFDYWGLGTLVTVSS
VL: EIVMTQSPATLSVSPGERATFSCRASQSVNSKLAWYQQKPGQAPRLLIYDASRRATGIPDRFSGSGSGTEFTLTISSLQSEDFAVYYCQQYYDWPPLTFGGGTKVEIK
notes: tested as scFv-Fc supernatant; also called 40566p1.Al2
B7: 40566p1.D12 (scFv, V domains shown)
VH: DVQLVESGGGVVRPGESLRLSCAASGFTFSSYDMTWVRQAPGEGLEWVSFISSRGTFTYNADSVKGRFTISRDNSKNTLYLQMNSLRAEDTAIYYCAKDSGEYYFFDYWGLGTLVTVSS
VL: EIVMTQSPATLSVSPGERATFSCRASQSVNSKLAWYQQKPGQAPRLLIYGASRRATGIPDRFSGSGSGTEFTLTISSLQSEDFAVYYCQQYYDWPPLTFGGGTKVEIK
notes: tested as scFv-Fc supernatant
B8: 40566p1.B12 (scFv, V domains shown)
VH: DVQLVESGGGVVRPGESLRLSCAASGFTFDNYDMTWVRQAPGEGLEWVSFISSRGIFTYYADSVKGRFTISRDNSKNTLYLQMNSLRAEDTAIYYCAKDSGEYYFFDYWGLGTLVTVSS
VL: EIVMTQSPATLSVSPGERATFSCRASQSVNSKLAWYQQKPGQAPRLLIYGASRRATGIPDRFSGSGSGTEFTLTISSLQSEDFAVYYCQQYYDWPPLTFGGGTKVEIK
notes: tested as scFv-Fc supernatant
B9: 40566p1.A9 (scFv, V domains shown)
VH: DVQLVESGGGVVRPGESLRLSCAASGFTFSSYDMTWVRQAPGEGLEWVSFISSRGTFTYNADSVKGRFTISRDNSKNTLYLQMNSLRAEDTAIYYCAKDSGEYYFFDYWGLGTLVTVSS
VL: EIVMMQSPATLSVSPGERATFSCRASQSVNSKLAWYQQKPGQAPRLLIYGASRRATGIPDRFSGSGSGTEFTLTISSLQSEDFAVYYCQQYYDWPPLTFGGGTKVEIK
notes: tested as scFv-Fc supernatant
B10: 40566p1.G12 (scFv, V domains shown)
VH: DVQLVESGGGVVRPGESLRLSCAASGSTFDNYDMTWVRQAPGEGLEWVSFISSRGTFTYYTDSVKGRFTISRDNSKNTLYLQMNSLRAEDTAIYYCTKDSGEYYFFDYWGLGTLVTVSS
VL: EIVMTQSPATLSVSPGERATFSCRASQSVNSKLAWYQQKPGQAPRLLIYDASRRATGIPDRFSGSGSGTEFTLTISSLQSEDFAVYYCQQYYDWPPLTFGGGTKVEIK
notes: tested as scFv-Fc supernatant
B11: 40566p1.C11 (scFv, V domains shown)
VH: DVQLVESGGGVVRPGESLRLSCAASGFTFDNYDMTWVRQAPGEGLEWVSFISSRGTFTYYTDSVKGRFTISRDNSKNTLYLQMNSLRAEDTAIYYCTKDSGEYYFFDYWGLGTLVTVSS
VL: EIVLTQSPGTLSLSPGERATLSCRASQTVGSKLAWYQQKPGQAPRLLIFSASSRATGIPARFSGSGSGTEFTLTISSLQSEDFAVYYCQQYYDWPPLTFGGGTKVEIK
notes: tested as scFv-Fc supernatant
B12: 40566p1.G9 (scFv, V domains shown)
VH: DVQLVESGGGVVRPGESLRLSCAASGFTFDNYDMTWVRQAPGEGLEWVSFISSRGTFTYYADSVKGRFTISRDNSKNTLYLQMNSLRAEDTAIYYCAKDSGEYYFFDYWGLGTLVTVSS
VL: EIVMTQSPATLSVSPGERATFSCRASQSVNSKLAWYQQKPGQAPRLLIYGASRRATGIPDRFSGSGSGTEFTLTISSLQSEDFAVYYCQQYYDWPPLTFGGGTKVEIK
notes: tested as scFv-Fc supernatant
B13: 40566p1.F1 (scFv, V domains shown)
VH: DVQLVESGGGVVRPGESLRLSCAASGFTFDNYDMTWVRQAPGEGLEWVSFISSRGTFTYYTDSVKGRFTISRDNSKNTLYLQMNSLRAEDTAIYYCTKDSGEYYFFDYWGLGTLVTVSS
VL: ETVMTQSPATLSVSPGERATFSCRASQSVNGKLAWYQQKPGQAPRLLIYDASRRATGIPDRFSGSGSGTEFTLTISSLQSEDFAVYYCQQYYDWPPLTFGGGTKVEIK
notes: tested as scFv-Fc supernatant; also called 40566p1.Fl
B14: 40769p1.1.H10 (scFv, V domains shown)
VH: EVQLLESGGGLVQPGGSLRLSCAAFGFTFSDYEMNWVRQAPGKGLEWVSSISITGSWTGYADSVKGRFTISRDNSKNTLYLQMNNLRAEDTAVYYCANYKSYYGMDVWGQGTTVTVSS
VL: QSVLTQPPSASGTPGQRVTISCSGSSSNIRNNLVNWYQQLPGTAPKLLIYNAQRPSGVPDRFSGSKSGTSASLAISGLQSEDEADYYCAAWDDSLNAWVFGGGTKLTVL
notes: tested as scFv-Fc supernatant

Experiments:
[1] = molecular target: T3, His-tagged human CD38 (ACRO Biosystems cat #CD8-H5224) (human, UniProt P28907 43-300); assay: SPR, captured scFv-Fc, His-CD38 analyte;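 also: SPR on a Carterra LSA, scFv-Fc captured by anti-human Fc on HC30M chip, His-tagged CD38 (human, mouse, cynomolgus) flowed as analyte in eight 1:2 steps from 400 nM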
T3 construct: bought recombinant protein with His tag

[2] = molecular target: T4, His-tagged cynomolgus monkey CD38 (ACRO Biosystems cat #CD8-05223) (cynomolgus monkey, UniProt Q5VAN0 43-301); assay: SPR, captured scFv-Fc, His-CD38 analyte;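 also: SPR on a Carterra LSA, scFv-Fc captured by anti-human Fc on HC30M chip, His-tagged CD38 (human, mouse, cynomolgus) flowed as analyte in eight 1:2 steps from 400 nM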
T4 construct: bought recombinant protein with His tag

[3] = molecular target: T3, His-tagged human CD38 (ACRO Biosystems …); assay: ELISA, coated His-CD38
[4] = molecular target: T1, His-tagged mouse CD38 (ACRO Biosystems …); assay: ELISA, coated His-CD38
[5] = molecular target: T4, His-tagged cynomolgus monkey CD38 (ACRO …); assay: ELISA, coated His-CD38
[6] = molecular target: T2, murine CD38 on transiently transfected …; assay: flow cytometry, transfected Expi293 cells;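 also: antibody binding to Expi293 cells transiently expressing human or murine CD38, antibodies applied at 10 ug/ml for 60 min on ice, read by flow cytometry as percent gated cells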
[7] = molecular target: T5, human CD38 on transiently transfected Expi293 cells (Origene #SC321273) (human, UniProt P28907 1-300); assay: flow cytometry, transfected Expi293 cells;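 also: antibody binding to Expi293 cells transiently expressing human or murine CD38, antibodies applied at 10 ug/ml for 60 min on ice, read by flow cytometry as percent gated cells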
T5 construct: whole, on cells; also called Human (FACs)

[8] = molecular target: T1, His-tagged mouse CD38 (ACRO Biosystems …); assay: SPR, captured scFv-Fc, His-CD38 analyte;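 also: SPR on a Carterra LSA, scFv-Fc captured by anti-human Fc on HC30M chip, His-tagged CD38 (human, mouse, cynomolgus) flowed as analyte in eight 1:2 steps from 400 nM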

| Kd [1] [nM] | Kd [2] [nM] | ELISA 1 ug/ml [3] | ELISA 1 ug/ml [4] | ELISA 1 ug/ml [5] | FACs 10 ug/ml (percent gated) [6] [%] | FACs 10 ug/ml (percent gated) [7] [%] | Kd [8] [nM] | Binder |
| --- | --- | --- | --- | --- | --- | --- | --- | --- |
| 1.88 | 11.4 | 1.45 | 0.056 | 1.08 | 0.16 | 68.4 | – | B1 |
| 86.7 | 114 | 1.94 | – | 1.89 | 62.8 | 71.7 | 51.6 | B2 |
| 202000 | 2.66 | 1.99 | 2.12 | 1.85 | 72.8 | 14.2 | 1.31 | B3 |
| 465 | – | 1.92 | 1.86 | 1.74 | 75.3 | 26.4 | 0.478 | B4 |
| 0.872 | – | 1.87 | 1.9 | 1.9 | 70.8 | 17.8 | 5.81 | B5 |
| – | – | 1.98 | 1.99 | 1.89 | 72.6 | 25.2 | 1.03 | B6 |
| – | – | 1.98 | 1.83 | 1.96 | 74.8 | 20.8 | 0.967 | B7 |
| 470000 | – | 1.72 | 1.62 | 1.6 | 57.7 | 8.31 | 25.6 | B8 |
| – | – | 1.87 | 2.02 | 1.88 | 75.9 | 19.1 | 0.918 | B9 |
| – | – | 1.58 | 1.65 | 1.62 | 68.5 | 7.52 | 2.07 | B10 |
| – | – | 1.87 | 1.6 | 1.7 | 64.5 | 11.9 | 1.97 | B11 |
| – | – | 1.82 | 1.93 | 1.86 | 70.7 | 17.8 | 4.8 | B12 |
| – | 3880 | 1.83 | 2.17 | 1.95 | 76 | 32 | 0.375 | B13 |
| 1.95 | 2.85 | 1.7 | 0.048 | 1.96 | 0.12 | 79 | – | B14 |
